Laboratory results: patent publication US8404647B2, “Peptidylarginine deiminase (PAD) inhibitors” (Chiralix B.V., priority 2008, dated 2013)
Ends that are not written are not given here.

Key:
[1] = biological target: PAD4 (Homo sapiens, UniProt Q9UM07); experiment: Conversion (R to Cit) of substrate peptides by PAD4, mass spectrometry; assay type: biochemical; details: for Conversion by PAD4 (%): Table 10; for Conversion (%): PAD4; for Conversion: Table 7, PAD4, test system with 3 times less enzyme
Source text: From previous studies it was known that D-S-Q-F-A-F-R-G-A-S-A-S-D (designated here as L1: SEQ ID NO: 11) is a substrate for PAD2 and PAD 4. To obtain better substrates, and subsequently powerful inhibitors, we intended to identify structural elements that improve substrate properties. A set of 152 individual analog peptides was generated, each differing from L1 by one amino acid at one of the positions −4 to −1 or 1 to 4.
In Table 3 the conversion of each analog (R to Cit conversion) is depicted. Values of the analogs relate to the conversion of the analog compared to the conversion of L1 under standard conditions (100 means a conversion equal to L1, 50 means conversion of 50% of that of L1, 175 means conversion of 175% of that of L1). Numbers above 100 thus relate to amino acid substitutions that improve substrate properties.
Peptides of table 4 are represented by the following sequences SEQ ID NO: 22-31 and 33-46. Control peptide are represented by the following sequences SEQ ID NO: 11 as control L1 and SEQ ID NO: 32 as control L2. Unfortunately, a substantial number of designed peptides were too polar to be analyzed on our LC-MS system (indicated in Table 4 as n.t., not trapped on the column). We therefore also generated and tested these peptides containing two additional N-terminal F-residues to increase hydrophobicity. In this form peptides were trapped on the column and could be analyzed (see Table 5).
Based on the above results we designed 20 peptides containing multiple amino acids that improve substrate properties (see Table 7). The indicated peptides were synthesized and tested in order to identify the best substrate from this group. Here we used a test system with less enzyme (3 times less) compared to the experiments described above.
(§1) Conversion of arginine into citrulline in the substrate peptides by PAD2 or PAD4 using mass spectrometry was performed as follows. A candidate substrate peptide was incubated with a PAD as indicated for several hours at 37° C. The reaction was quenched by the addition with acetic acid. A sample was analysed on a Qtof mass spectrometer (Micromass, UK) and the mass spectrum was compared with that of the same peptide not treated with PAD. Normally, 2^+- and 3^+-ions are detected. The conversion (ΔM=0.98 Da) was calculated on the 2^+- and 3^+-ions individually, and subsequently averaged taking into account the relative peak height of the 2^+- and 3^+-signals (see FIG. 5).

[2] = biological target: PAD2 (Homo sapiens, UniProt Q9Y2J8); experiment: Conversion (R to Cit) of substrate peptides by PAD2, mass spectrometry; assay type: biochemical; details: for Conversion (%): Table 9, PAD2; for Conversion by PAD2 (%): Table 10
Method: In a similar fashion as for PAD4 we identified improved peptide substrates for PAD2. Again L1 was used as a lead compound. The set of 152 peptides from Table 3 was used and testing was performed as described before.
as §1

[3] = Table 5, peptides with two additional N-terminal F-residues

PAD4, sequence (Q9UM07 whole entry): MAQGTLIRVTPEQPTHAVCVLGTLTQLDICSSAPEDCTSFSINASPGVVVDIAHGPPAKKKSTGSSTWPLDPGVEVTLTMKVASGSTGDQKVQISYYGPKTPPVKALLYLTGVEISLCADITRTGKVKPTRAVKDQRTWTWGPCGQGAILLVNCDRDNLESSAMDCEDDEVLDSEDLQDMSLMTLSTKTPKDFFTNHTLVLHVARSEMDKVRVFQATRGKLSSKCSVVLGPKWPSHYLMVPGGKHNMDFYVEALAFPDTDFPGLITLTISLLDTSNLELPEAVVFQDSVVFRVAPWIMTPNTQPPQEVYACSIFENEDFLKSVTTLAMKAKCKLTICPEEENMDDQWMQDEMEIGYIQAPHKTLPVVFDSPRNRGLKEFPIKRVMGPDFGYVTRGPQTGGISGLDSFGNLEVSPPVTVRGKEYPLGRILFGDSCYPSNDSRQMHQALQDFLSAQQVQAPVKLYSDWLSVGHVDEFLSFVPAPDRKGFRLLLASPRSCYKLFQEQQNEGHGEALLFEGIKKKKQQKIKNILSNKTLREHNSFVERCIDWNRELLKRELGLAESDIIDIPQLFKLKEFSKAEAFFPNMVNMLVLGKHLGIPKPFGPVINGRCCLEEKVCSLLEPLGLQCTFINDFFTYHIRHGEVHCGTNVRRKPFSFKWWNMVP
PAD2, sequence (Q9Y2J8 whole entry): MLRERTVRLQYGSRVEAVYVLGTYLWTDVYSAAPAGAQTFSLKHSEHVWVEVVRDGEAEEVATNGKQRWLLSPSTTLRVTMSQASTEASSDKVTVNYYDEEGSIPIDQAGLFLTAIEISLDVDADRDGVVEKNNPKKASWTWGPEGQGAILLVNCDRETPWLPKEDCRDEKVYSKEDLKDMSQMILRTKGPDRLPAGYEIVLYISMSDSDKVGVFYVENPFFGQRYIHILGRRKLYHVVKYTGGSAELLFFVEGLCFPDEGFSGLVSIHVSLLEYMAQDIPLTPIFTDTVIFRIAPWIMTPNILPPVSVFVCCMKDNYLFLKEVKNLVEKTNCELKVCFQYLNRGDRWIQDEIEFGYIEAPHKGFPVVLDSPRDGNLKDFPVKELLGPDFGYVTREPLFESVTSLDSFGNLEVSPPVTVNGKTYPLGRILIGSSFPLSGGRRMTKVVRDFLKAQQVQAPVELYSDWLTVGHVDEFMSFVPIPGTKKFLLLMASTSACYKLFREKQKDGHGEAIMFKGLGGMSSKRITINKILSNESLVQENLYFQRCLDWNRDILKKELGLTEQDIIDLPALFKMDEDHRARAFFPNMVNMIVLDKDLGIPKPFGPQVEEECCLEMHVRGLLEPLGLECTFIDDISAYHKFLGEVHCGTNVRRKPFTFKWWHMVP

Substance | Conversion (%) [2] [%] | Conversion (%) [1, 3] [%] | further results
D-S-K-W-Y-H-R-N-K-F-W-S-D (DSKWYHRNKFWSD) [Peptide 0735-27] | 98 |  | Conversion by PAD4 (%) [1]: 45%; Conversion by PAD2 (%) [2]: 98%
D-S-K-H-L-S-R-E-W-M-W-S-D (DSKHLSREWMWSD; not fully specified (C-terminus); printed as D-S-K-H-L-S-R-E-W-M-W-S-D) [Peptide 0608-24] |  |  | Conversion (%) ([1]; Table 4, 13-mer peptides): 90%; Conversion by PAD4 (%) [1]: 54%; Conversion by PAD2 (%) [2]: 95%
D-S-Q-W-A-F-R-H-A-L-F-S-D (DSQWAFRHALFSD) [Peptide 0735-37] | 95 |  | Conversion by PAD4 (%) [1]: <20%; Conversion by PAD2 (%) [2]: 95%
D-S-K-F-H-F-R-Y-A-V-A-S-D (DSKFHFRYAVASD; not fully specified (C-terminus); printed as D-S-K-F-H-F-R-Y-A-V-A-S-D) [Peptide 0735-35] | 92 |  | Conversion by PAD4 (%) [1]: <20%; Conversion by PAD2 (%) [2]: 92%
F-F-D-S-H-K-K-S-R-E-Y-V-F-S-D (FFDSHKKSREYVFSD) [Peptide 0612-44] |  | 100 | Conversion by PAD4 (%) [1]: 58%; Conversion by PAD2 (%) [2]: 100%
D-S-K-F-K-F-R-Y-A-Y-A-S-D (DSKFKFRYAYASD; not fully specified (C-terminus); printed as D-S-K-F-K-F-R-Y-A-Y-A-S-D) [Peptide 0735-34] | 91 |  | Conversion by PAD4 (%) [1]: <20%; Conversion by PAD2 (%) [2]: 91%
D-S-Q-W-A-F-R-N-A-F-A-S-D (DSQWAFRNAFASD) [Peptide 0735-38] | 82 |  | 
D-S-K-K-F-D-R-D-F-L-F-S-D (DSKKFDRDFLFSD; not fully specified (C-terminus); printed as D-S-K-K-F-D-R-D-F-L-F-S-D) [Peptide 0708-27] |  |  | Conversion [1]: 51
F-F-D-S-H-K-W-S-R-D-H-F-E-S-D (FFDSHKWSRDHFESD) [Peptide 0612-47] |  | 100 | 
D-S-K-W-F-D-R-D-H-L-Y-S-D (DSKWFDRDHLYSD; not fully specified (C-terminus); printed as D-S-K-W-F-D-R-D-H-L-Y-S-D) [Peptide 0708-16] |  |  | Conversion [1]: 70
F-F-D-S-K-H-H-S-R-D-H-L-E-S-D (FFDSKHHSRDHLESD) [Peptide 0612-23] |  | 100 | 
D-S-W-W-H-K-R-D-K-L-Y-S-D (DSWWHKRDKLYSD) [Peptide 0708-23] |  |  | Conversion [1]: 18
D-S-H-H-L-S-R-D-F-M-Y-S-D (DSHHLSRDFMYSD; not fully specified (C-terminus); printed as D-S-H-H-L-S-R-D-F-M-Y-S-D) [Peptide 0608-39] |  |  | Conversion (%) ([1]; Table 4, 13-mer peptides): 95%
D-S-K-K-H-D-R-D-H-L-F-S-D (DSKKHDRDHLFSD; not fully specified (C-terminus); printed as D-S-K-K-H-D-R-D-H-L-F-S-D) [Peptide 0708-21] |  |  | Conversion [1]: 53
D-S-Q-F-A-F-R-H-F-S-A-S-D (DSQFAFRHFSASD) [Peptide 0735-32] | 85 |  | 
F-F-D-S-H-K-H-H-R-D-H-L-E-S-D (FFDSHKHHRDHLESD) [Peptide 0612-43] |  | 100 | 
D-S-Q-F-A-F-R-G-A-F-W-S-D (DSQFAFRGAFWSD) [Peptide 0735-30] | 65 |  | 
F-F-D-S-H-H-K-D-R-D-H-V-E-S-D (FFDSHHKDRDHVESD) [Peptide 0612-39] |  | 100 | 
F-F-D-S-K-H-K-D-R-E-Y-V-F-S-D (FFDSKHKDREYVFSD) [Peptide 0612-24] |  | 100 | 
F-F-D-S-K-K-L-H-R-D-H-M-E-S-D (FFDSKKLHRDHMESD) [Peptide 0612-31] |  | 88 | 
F-F-D-S-K-K-H-D-R-D-F-L-Y-S-D (FFDSKKHDRDFLYSD) [Peptide 0612-33] |  | 100 | 
D-S-K-K-H-D-R-D-K-L-F-S-D (DSKKHDRDKLFSD; not fully specified (C-terminus); printed as D-S-K-K-H-D-R-D-K-L-F-S-D) [Peptide 0708-24] |  |  | Conversion [1]: 35

Substance | Conversion (%) [2] [%] | Conversion (%) [1, 3] [%] | further results
D-S-K-K-W-S-R-E-Y-F-F-S-D (DSKKWSREYFFSD; not fully specified (C-terminus); printed as D-S-K-K-W-S-R-E-Y-F-F-S-D) [Peptide 0608-30] |  |  | Conversion (%) ([1]; Table 4, 13-mer peptides): 90%
D-S-M-C-A-F-R-G-A-K-K-S-D (DSMCAFRGAKKSD) [Peptide 0735-31] | 59 |  | 
D-S-H-H-F-H-R-E-Y-I-F-S-D (DSHHFHREYIFSD; not fully specified (C-terminus); printed as D-S-H-H-F-H-R-E-Y-I-F-S-D) [Peptide 0608-38] |  |  | Conversion (%) ([1]; Table 4, 13-mer peptides): 90%
D-S-H-K-L-D-R-E-Y-M-F-S-D (DSHKLDREYMFSD; not fully specified (C-terminus); printed as D-S-H-K-L-D-R-E-Y-M-F-S-D) [Peptide 0608-34] |  |  | Conversion (%) ([1]; Table 4, 13-mer peptides): 90%
F-F-D-S-K-H-W-D-R-D-H-F-E-S-D (FFDSKHWDRDHFESD) [Peptide 0612-27] |  | 100 | 
F-F-D-S-H-K-L-D-R-E-Y-M-F-S-D (FFDSHKLDREYMFSD) [Peptide 0612-36] |  | 100 | 
F-F-D-S-H-H-L-S-R-D-F-M-Y-S-D (FFDSHHLSRDFMYSD) [Peptide 0612-41] |  | 98 | 
F-F-D-S-K-H-F-H-R-D-F-I-Y-S-D (FFDSKHFHRDFIYSD) [Peptide 0612-25] |  | 100 | 
D-S-H-H-W-D-R-E-W-F-W-S-D (DSHHWDREWFWSD; not fully specified (C-terminus); printed as D-S-H-H-W-D-R-E-W-F-W-S-D) [Peptide 0608-40] |  |  | Conversion (%) ([1]; Table 4, 13-mer peptides): 100%
D-S-H-K-L-H-R-E-W-M-W-S-D (DSHKLHREWMWSD; not fully specified (C-terminus); printed as D-S-H-K-L-H-R-E-W-M-W-S-D) [Peptide 0608-44] |  |  | Conversion (%) ([1]; Table 4, 13-mer peptides): 95%
D-S-Q-F-K-F-R-G-A-F-A-S-D (DSQFKFRGAFASD) [Peptide 0735-39] | 80 |  | 
F-F-D-S-H-H-W-D-R-E-W-F-W-S-D (FFDSHHWDREWFWSD) [Peptide 0612-42] |  | 100 | 
D-S-H-K-F-D-R-D-F-L-Y-S-D (DSHKFDRDFLYSD; not fully specified (C-terminus); printed as D-S-H-K-F-D-R-D-F-L-Y-S-D) [Peptide 0708-28] |  |  | Conversion [1]: 53
D-S-K-H-K-D-R-E-Y-V-F-S-D (DSKHKDREYVFSD; not fully specified (C-terminus); printed as D-S-K-H-K-D-R-E-Y-V-F-S-D) [Peptide 0608-22] |  |  | Conversion (%) ([1]; Table 4, 13-mer peptides): 90%
D-S-N-K-H-H-R-D-H-L-Y-S-D (DSNKHHRDHLYSD) [Peptide 0708-17] |  |  | Conversion [1]: 38
D-S-N-W-H-H-R-D-H-L-Y-S-D (DSNWHHRDHLYSD) [Peptide 0708-19] |  |  | Conversion [1]: 45
D-S-Q-W-A-F-R-G-A-F-A-S-D (DSQWAFRGAFASD) [Peptide 0735-33] | 82 |  | 
D-S-Q-C-L-F-R-G-A-F-A-S-D (DSQCLFRGAFASD) [Peptide 0735-40] | 73 |  | 
D-S-W-K-A-F-R-G-A-S-A-S-D (DSWKAFRGASASD) [Peptide 0735-29] | 70 |  | 
D-S-Q-F-A-H-R-N-A-S-A-S-D (DSQFAHRNASASD) [Peptide 0735-28] | 35 |  | 
F-F-D-S-K-H-H-H-R-E-Y-L-F-S-D (FFDSKHHHREYLFSD) [Peptide 0612-28] |  | 100 | 
D-S-Q-F-A-Y-R-N-A-K-A-S-D (DSQFAYRNAKASD) [Peptide 0735-36] | 74 |  | 
